Experimental data from publication PMC3280236.

Target: Stat1, unphosphorylated, endogenous in 293 T cells (human (endogenous in 293 T)) (UniProt P42224)
UniProt P42224, sequence (P42224 whole entry): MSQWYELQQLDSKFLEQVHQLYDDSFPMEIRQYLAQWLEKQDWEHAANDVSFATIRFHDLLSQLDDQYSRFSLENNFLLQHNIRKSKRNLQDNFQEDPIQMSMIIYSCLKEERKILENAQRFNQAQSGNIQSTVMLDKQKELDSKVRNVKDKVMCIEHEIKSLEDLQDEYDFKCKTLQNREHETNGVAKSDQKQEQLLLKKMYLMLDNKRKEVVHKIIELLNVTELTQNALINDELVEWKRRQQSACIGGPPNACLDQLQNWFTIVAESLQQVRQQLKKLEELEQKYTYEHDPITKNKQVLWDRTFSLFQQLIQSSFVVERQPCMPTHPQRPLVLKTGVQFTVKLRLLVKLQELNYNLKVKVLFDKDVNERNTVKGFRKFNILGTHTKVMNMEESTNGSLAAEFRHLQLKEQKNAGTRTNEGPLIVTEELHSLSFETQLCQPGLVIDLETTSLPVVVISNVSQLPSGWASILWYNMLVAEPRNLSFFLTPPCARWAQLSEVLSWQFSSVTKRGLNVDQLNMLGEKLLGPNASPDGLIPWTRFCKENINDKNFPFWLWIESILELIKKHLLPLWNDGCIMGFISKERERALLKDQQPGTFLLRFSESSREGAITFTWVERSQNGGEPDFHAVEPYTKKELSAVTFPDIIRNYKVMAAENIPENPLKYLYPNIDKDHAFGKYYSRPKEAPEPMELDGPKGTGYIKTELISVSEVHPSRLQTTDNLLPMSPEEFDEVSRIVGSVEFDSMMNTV

| Substance | percent of F170S HPIV1-infected Vero cells positive for nuclear Stat1 after IFN-β (1,000 IU/mL, 60 min), confocal microscopy (untagged C proteins made by the virus; Stat1 of Vero cells) [%] | percent of WT HPIV1-infected Vero cells positive for nuclear Stat1 after IFN-β (1,000 IU/mL, 60 min), confocal microscopy (untagged C proteins made by the virus; Stat1 of Vero cells) [%] |
| --- | --- | --- |
| myc-tagged HPIV1 C′ protein with the F170S substitution (C′^F170S-myc) (natural protein) | 82 |  |
| myc-tagged HPIV1 C′ protein, wild type (C′^WT-myc) (natural protein) |  | 2 |
